Assay results taken from patent US20260217796A1 (NANJING GENSCRIPT BIOTECH, published 2026).

target: T1, recombinant AAV2 virus-like particles (VLPs) of capsid proteins VP1, VP2 and VP3 (AAV2, UniProt P03135 1-735; P03135 139-735; P03135 203-735); assay: indirect ELISA, plate coated with 1 ug/mL AAV2 VLP, 3-fold antibody dilutions from 1 ug/mL
T1 construct: also called AAV2 VLP; antigen
T1 sequence (P03135 whole entry, chain 1 of 3): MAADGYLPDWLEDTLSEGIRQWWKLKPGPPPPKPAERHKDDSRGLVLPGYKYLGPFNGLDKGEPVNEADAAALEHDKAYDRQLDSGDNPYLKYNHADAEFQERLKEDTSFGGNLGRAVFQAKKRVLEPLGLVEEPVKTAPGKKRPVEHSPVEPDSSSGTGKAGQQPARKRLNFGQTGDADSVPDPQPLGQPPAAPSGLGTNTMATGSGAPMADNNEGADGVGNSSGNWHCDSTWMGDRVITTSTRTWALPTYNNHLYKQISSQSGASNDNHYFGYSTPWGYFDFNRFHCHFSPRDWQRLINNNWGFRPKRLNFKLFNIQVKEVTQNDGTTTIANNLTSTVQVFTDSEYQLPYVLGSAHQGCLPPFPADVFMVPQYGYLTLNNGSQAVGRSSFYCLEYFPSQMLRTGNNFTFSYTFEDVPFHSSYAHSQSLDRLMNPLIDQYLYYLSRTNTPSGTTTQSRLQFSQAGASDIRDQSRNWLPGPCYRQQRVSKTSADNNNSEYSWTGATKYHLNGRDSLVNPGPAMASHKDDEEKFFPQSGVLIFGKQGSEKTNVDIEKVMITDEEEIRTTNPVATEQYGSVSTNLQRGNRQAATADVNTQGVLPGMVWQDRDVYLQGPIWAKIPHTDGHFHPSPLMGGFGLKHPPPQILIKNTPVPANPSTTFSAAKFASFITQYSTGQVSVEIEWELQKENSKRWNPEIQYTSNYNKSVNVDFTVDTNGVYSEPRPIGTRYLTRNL
T1 sequence (P03135 139-735, tags left off, chain 2 of 3): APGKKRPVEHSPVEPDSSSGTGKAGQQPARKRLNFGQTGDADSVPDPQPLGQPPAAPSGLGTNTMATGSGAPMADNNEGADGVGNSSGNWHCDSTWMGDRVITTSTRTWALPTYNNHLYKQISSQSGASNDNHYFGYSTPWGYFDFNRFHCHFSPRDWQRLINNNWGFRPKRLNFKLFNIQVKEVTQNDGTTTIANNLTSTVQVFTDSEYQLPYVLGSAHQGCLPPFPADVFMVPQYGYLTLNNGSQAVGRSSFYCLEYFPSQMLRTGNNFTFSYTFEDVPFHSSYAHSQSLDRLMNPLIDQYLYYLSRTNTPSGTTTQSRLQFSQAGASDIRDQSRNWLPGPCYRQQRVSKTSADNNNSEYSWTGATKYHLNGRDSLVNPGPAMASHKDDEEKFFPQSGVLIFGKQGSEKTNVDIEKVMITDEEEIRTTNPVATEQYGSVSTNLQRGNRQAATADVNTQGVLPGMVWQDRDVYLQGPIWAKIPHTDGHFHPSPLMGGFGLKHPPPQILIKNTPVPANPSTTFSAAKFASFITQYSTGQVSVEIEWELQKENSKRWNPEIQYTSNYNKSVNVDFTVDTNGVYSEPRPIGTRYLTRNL
T1 sequence (P03135 203-735 limits assumed, chain 3 of 3): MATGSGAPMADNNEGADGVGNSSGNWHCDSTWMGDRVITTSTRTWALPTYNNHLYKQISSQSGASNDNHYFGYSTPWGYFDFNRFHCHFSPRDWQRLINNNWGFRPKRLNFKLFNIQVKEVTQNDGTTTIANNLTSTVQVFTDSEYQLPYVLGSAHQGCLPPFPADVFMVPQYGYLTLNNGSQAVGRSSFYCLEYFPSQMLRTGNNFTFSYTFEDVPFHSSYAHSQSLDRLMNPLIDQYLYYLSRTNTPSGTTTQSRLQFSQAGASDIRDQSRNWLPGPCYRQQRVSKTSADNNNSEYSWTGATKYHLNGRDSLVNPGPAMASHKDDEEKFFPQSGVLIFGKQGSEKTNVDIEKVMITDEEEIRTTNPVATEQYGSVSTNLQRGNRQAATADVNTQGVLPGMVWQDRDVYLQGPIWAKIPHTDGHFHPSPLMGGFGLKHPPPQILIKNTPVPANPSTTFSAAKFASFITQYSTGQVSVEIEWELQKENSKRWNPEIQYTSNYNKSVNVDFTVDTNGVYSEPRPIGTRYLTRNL

| Binder | EC50 [ng/mL] |
| --- | --- |
| 15G4-4 (antibody, V domains shown, Expressed recombinantly in ExpiCHO-S cells, purified on protein A as IgG and detected with anti-rabbit IgG (Fc-specific); also called anti-AAV2 rabbit monoclonal antibody 15G4-4; combination B) VH: QSVEESGGRLVTPGTPLTLTCTVSGFSLNSYTVNWVRQAPGKGLEWIGFISGGSGITNYATWAKGRFTISKTSTTVDLKLPSPTTEDTATYFCARGRYPGYGGDDYEDYYFNLWGQGTLVTVSS VL: DVVMTQTQASVSAAVGGTVTIKCQASESIGSYLAWYQQKPGQPPRLLIYQASTLASGVSSRFKGSGSGTQFTLTISDLECDDAATYYCQGEFSCDGAHCNAFGGGTEVVVK | 1.77 |
| 33G5-3 (antibody, V domains shown, Expressed recombinantly in ExpiCHO-S cells, purified on protein A as IgG and detected with anti-rabbit IgG (Fc-specific); also called anti-AAV2 rabbit monoclonal antibody 33G5-3; Biotin-33G5-3) VH: QSVEESGGRLVTPGTPLTLTCTVSGIDLSSYAMSWVRQAPGKGLEWIGTINSDNYRYFGSWAKGRFTISKTSTTVDLKITSPTTEDTATYFCARQRGTSSGNAMDLWGPGTLVTVSS VL: DVVMTQTPASVSAALGGTVTIKCQASQSIGSYLNWYQQKPGQPPKLLIYAASTLAYGVSSRFRGSGSGTEFTLTISDLECADAATYYCQTYYISDSSSHVFGGGTEVVVK | 1.62 |
| 19E10-3 (antibody, V domains shown, Expressed recombinantly in ExpiCHO-S cells, purified on protein A as IgG and detected with anti-rabbit IgG (Fc-specific); also called anti-AAV2 rabbit monoclonal antibody 19E10-3; combination C) VH: QSLEESGGDLVKPGSSLTLTCTASRFSFSGDYDMCWVRQAPGKGLEWIACIGAGDAITYYTNWARGRFTITYTSSTTMTLQLTSLTVADTAAYFCAAGADFAFKLWGPGTLVTVSS VL: DIVMTQTPASVEAAVGGTVTIKCQASQSIMSLLAWYQQKPGQPPKLLIYEASKLASGVPSRFSGSGSGTQFTLTISDLECADAATYYCQGYVESSGRHYRFWAFGGGTEVVVK | 3.94 |
| 8H8-1 (antibody, V domains shown, Expressed recombinantly in ExpiCHO-S cells, purified on protein A as IgG and detected with anti-rabbit IgG (Fc-specific); also called anti-AAV2 rabbit monoclonal antibody 8H8-1; combination A) VH: QSLVESGGGLVQPEGSLTLTCTASGFSFSNVYYMCWVRQAPGKGPDWIACIYINADSTYYPSWATGRFTISKTSSTTVTLQMTSLTAADTATYFCARVAAYYDVYFNLWGPGTVVTVSS VL: AVVMTQTASPVSAAVGGTVTINCQASQSISSSYLSWYQQKPGQPPKLLIYYASILTSGVPSRFKGSGDGTEYSLTISGVQCDDAATYYCLYGRYSGASIDTVFGGGTEVVVK | 1.46 |
